The record followed here is US20260209376A1 (University of California, published 2026).

A word on the EC50 (read off the curve): it is the concentration at which the effect is half-maximal.

The target in experiment [1] is T1, cynomolgus monkey (Macaca fascicularis) soluble TfR1 (sCD71) (cynomolgus monkey (Macaca fascicularis), UniProt H9EXL1 89-760 (rhesus entry)).
T1 construct: extracellular domain; also called cynomolgus monkey TfR1; cynomolgus monkey sCD71
Put plainly: ELISA, plate coated with soluble cynomolgus monkey TfR1 (Sino Biological), 2-fold antibody dilutions, AP anti-human kappa detection, A405. As for the experimental part:
(§1) Immulon-H2B plates (Thermo Fisher Scientific, Inc.) were coated overnight at 4° C. with soluble 5 μg/mL TfR1 (sCD71) in 50 mM carbonate/bicarbonate buffer, pH 9.3. Human sCD71 was obtained from either Cal Tech (California Institute of Technology, Pasadena, CA, USA) or Kerafast, Inc., while cynomolgus monkey (Macaca fascicularis) sCD71 was purchased from Sino Biological, Inc. (Wayne, PA, USA). Plates were washed with PBS and blocked with 3% BSA in PBS. Serial 2-fold dilutions of antibodies (200-3.12 ng/mL) were added to the plate in duplicates and incubated overnight at 4° C. Binding was detected with an AP-conjugated goat anti-human κ antibody (MilliporeSigma) and AP substrate, p-nitrophenyl phosphate disodium (MilliporeSigma), dissolved in diethanolamine buffer (9.6% diethanolamine (v/v), 0.24 mM MgCl₂ in water, pH 9.8). Plates were read at absorbance 405 nm using a FilterMax F5 multi-mode microplate reader (Molecular Devices, Sunnyvale, CA, USA).

Experiment [2] concerns the target T2, human TfR1 on the cell surface (KMS-11 or MM.1S human MM cells) (human, UniProt P02786 1-760).
T2 construct: whole, on cells; also called human cells expressing the TfR1; CD71
Put plainly: flow cytometry on MM.1S cells, 2 ug antibody, PE anti-human kappa detection. How it is done:
(§2) KMS-11 cells (Namba et al., In Vitro Cell. Dev. Biol. 25(8):723-729 (1989)), a kind gift from Dr. Lawrence Boise (Emory University, Atlanta, GA, USA), and MM.1S cells (Greenstein et al., Exp. Hematol., 31(4):271-282 (2003)), purchased from the American Type Culture Collection (ATCC, Manassas, VA, USA; ATCC® CRL-2974T”) human MM cells were incubated with 2 μg of humanized antibodies or the control antibodies (ch128.1 as a positive control or a negative isotype control IgG1) for 2 hours on ice. Binding was detected using a PE-conjugated anti-human κ antibody. Samples were analyzed on an LSRII analytical flow cytometer (BD Biosciences, San Jose, CA, USA) and 10,000 events were collected. Histograms were created using the […] Version 3 (De Novo Software, Glendale, CA, USA).
A general note: A flow cytometer gives signals particle by particle.

Experiment [3] has as its target T3, soluble human TfR1 (sCD71) (human, UniProt P02786 89-760).
T3 construct: extracellular domain; Two sources (Cal Tech, Kerafast) are kept as one molecule; also called Human sCD71; transferrin receptor 1
Put plainly: ELISA, plate coated with soluble human TfR1 (Kerafast), 2-fold antibody dilutions, AP anti-human kappa detection, A405. As for the experimental part: as §1
Background: ELISA stands for enzyme-linked immunosorbent assay.

The target of experiment [4] is T3, soluble human TfR1 (sCD71). Description: ELISA, soluble human TfR1; semi-quantitative grade.
Experiment [5] addresses T2, human TfR1 on the cell surface (KMS-11 …). Put plainly: flow cytometry on KMS-11 cells; semi-quantitative grade. As for the experimental part:
as §2

Experiment [6] addresses TfR1 (antigen; form in the assay not stated) (human, UniProt P02786 89-760, limits assumed). Description: assay not named in the sentence (ELISA and flow cytometry per paragraph 218).

Changes are numbered by the printed parent chain.

Sequence of TfR1 (antigen; form in the assay not stated) (P02786 89-760 limits assumed): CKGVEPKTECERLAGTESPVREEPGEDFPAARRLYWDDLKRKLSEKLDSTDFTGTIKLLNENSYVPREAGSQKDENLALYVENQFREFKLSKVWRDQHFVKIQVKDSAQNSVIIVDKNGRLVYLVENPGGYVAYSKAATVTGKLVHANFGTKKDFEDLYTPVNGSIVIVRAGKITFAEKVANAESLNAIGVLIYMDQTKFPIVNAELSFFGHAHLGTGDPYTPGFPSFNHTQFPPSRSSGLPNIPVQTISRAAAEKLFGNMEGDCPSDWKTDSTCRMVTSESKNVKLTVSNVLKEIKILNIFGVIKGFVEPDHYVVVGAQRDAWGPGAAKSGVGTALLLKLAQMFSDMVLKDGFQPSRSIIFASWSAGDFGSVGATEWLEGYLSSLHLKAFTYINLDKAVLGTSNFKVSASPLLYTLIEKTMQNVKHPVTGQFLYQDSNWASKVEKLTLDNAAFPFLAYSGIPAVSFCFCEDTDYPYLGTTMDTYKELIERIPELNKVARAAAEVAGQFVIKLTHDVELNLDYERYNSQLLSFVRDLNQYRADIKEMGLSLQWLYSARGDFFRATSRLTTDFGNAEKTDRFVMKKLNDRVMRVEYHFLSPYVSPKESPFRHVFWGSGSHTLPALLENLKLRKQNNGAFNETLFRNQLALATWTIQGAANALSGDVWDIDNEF
T3 sequence (P02786 89-760): as the sequence (P02786 89-760 limits assumed) above
T1 sequence (chain, as listed by the source): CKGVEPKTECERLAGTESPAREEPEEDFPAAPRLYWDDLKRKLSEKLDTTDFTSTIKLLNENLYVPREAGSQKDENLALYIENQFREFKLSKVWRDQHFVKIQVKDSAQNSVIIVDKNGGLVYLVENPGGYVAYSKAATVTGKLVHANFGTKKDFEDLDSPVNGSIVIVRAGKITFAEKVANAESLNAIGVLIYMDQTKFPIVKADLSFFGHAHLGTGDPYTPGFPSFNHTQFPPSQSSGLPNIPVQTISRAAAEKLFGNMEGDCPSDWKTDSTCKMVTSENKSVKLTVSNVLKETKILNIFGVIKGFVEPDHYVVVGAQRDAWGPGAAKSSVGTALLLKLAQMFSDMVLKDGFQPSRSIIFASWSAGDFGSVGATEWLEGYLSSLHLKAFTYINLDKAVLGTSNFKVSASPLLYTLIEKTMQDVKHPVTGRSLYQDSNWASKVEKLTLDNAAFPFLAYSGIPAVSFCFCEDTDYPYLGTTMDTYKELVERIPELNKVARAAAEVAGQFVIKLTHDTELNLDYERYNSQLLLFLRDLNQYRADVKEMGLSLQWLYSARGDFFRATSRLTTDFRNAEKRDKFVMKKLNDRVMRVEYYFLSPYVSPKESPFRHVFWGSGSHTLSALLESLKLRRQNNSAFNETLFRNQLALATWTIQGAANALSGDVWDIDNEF
T2 sequence (P02786 whole entry): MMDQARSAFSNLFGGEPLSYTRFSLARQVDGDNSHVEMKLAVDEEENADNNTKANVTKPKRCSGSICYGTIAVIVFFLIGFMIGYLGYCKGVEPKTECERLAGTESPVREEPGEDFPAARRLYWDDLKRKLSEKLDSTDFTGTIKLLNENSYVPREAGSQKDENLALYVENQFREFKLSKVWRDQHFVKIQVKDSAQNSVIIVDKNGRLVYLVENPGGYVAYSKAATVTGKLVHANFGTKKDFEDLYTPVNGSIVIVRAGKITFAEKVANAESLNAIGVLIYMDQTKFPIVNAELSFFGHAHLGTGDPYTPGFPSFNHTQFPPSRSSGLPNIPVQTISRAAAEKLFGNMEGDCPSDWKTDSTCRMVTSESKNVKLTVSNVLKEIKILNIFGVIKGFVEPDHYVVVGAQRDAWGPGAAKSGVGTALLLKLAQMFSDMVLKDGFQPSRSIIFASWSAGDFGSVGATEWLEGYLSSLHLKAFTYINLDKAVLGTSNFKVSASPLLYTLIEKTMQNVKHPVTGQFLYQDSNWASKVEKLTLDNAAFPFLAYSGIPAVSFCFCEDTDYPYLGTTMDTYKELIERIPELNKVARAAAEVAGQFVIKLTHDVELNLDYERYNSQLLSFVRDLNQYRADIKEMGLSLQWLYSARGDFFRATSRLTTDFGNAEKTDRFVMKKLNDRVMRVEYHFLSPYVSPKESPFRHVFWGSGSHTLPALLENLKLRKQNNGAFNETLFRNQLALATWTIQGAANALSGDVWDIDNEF

B1: ch128.1 (antibody, human IgG1, V domains shown)
VH: EVQLQQSGPELVKPGASMKISCKASGYSFTGYTMNWVKQSHGENLEWIGRINPHNGGTDYNQKFKDKAPLTVDKSSNTAYMELLSLTSGDSAVYYCARGYYYYSLDYWGQGTSVTVSS
VL: QIVLTQSPAIMSVSPGEKVTMTCSASSSIRYIHWYQQRPGTSPKRWIYDTSNLASGVPARFSGSGSGTSYSLTISSMEAEDAATYYCHQRNSYPWTFGGGTRLEIR
notes: mouse 128.1 V regions; also called chimeric antibody; parental chimeric antibody
Regarding B1, the “EC50 (read off the curve)” value in experiment [1] was about 0.03 µg/mL. Also, in experiment [2], the binding result is listed as “binds”.

B2: H6L7 (antibody, human IgG1, V domains shown)
VH: EVQLVQSGAEVKKPGESLKISCKGSGYSFTGYTMNWVRQMPGKGLEWMGRINPHNGGTDYNQKFKDQVTISADKSISTAYLQWSSLKASDTAMYYCARGYYYYSLDYWGQGTLVTVSS
VL: EIVLTQSPATLSLSPGERATLSCSASSSIRYIHWYQQKPGQAPRRWIYDTSNLASGTPARFSGSGSGTSYSLTISSLEPEDFAVYYCHQRNSYPWTFGQGTKVEIK
notes: humanized; also called hu128.1
Take B2: in experiment [1], the “EC50 (read off the curve)” value is about 0.03 µg/mL. The binding result in experiment [2] and in experiment [3] was “binds” each time.

B3: H8L9 (antibody, human IgG1, V domains shown)
VH: QVQLVESGGGVVQPGRSLRLSCAASGYSFTGYTMNWVRQAPGNGLEWVARINPHNGGTDYNQKFKDRFTISRDNSKNTLYLQMNSLRAEDTAVYYCARGYYYYSLDYWGQGTTVTVSS
VL: B2 VL with S69D, Y70F, S71T
notes: as for B2
As for B3, in experiment [1], the “EC50 (read off the curve)” value is about 0.04 µg/mL. For the same molecule, the binding result in experiment [2] and in experiment [3] was “binds” in each case.

B4: H8L7 (antibody, human IgG1, V domains shown)
VH: B3 VH
VL: B2 VL
notes: as for B2
For B4, the binding result in experiment [4] and in experiment [5] was “binds” each time.

B5: H6L8 (antibody, human IgG1, V domains shown)
VH: B2 VH
VL: EIVLTQSPDFQSVTPKEKVTITCSASSSIRYIHWYQQRPDQSPKRWIYDTSNLASGVPSRFSGSGSGTSYSLTINSLEAEDAATYYCHQRNSYPWTFGQGTKVEIK
notes: as for B2
Turning to B5, the binding result in experiment [4] and in experiment [5] was “binds” throughout.

B6: H6L10 (antibody, human IgG1, V domains shown)
VH: B2 VH
VL: B5 VL with S69D, Y70F, S71T
notes: as for B2
Turning to B6, the binding result in experiment [4] and in experiment [5] was “binds” in each case.

B7: H8L5 (antibody, human IgG1, V domains shown)
VH: B3 VH
VL: B2 VL with H88Q
notes: as for B2
Regarding B7, the binding result in experiment [4] and in experiment [5] was “binds” in each case.

B8: H8L4 (antibody, human IgG1, V domains shown)
VH: B3 VH
VL: B2 VL with L13V, K38R, R45L, W46L, T57I, S69D, Y70F, S71T, Q99P, E104D
notes: as for B2
With B8, the binding result in experiment [6] is reported as “no binding”.

B9: H6L12 (antibody, human IgG1, V domains shown)
VH: B2 VH
VL: B5 VL with R45L, W46L
notes: as for B2
For the molecule B9, the binding result in experiment [4] and in experiment [5] was “binds” throughout.

B10: H8L1 (antibody, human IgG1, V domains shown)
VH: B3 VH
VL: B2 VL with R45L, W46L, S69D, Y70F, S71T
notes: as for B2
Take B10: the binding result in experiment [6] is on record as “no binding”.

B11: H6L9 (antibody, human IgG1, V domains shown)
VH: B2 VH
VL: B2 VL with S69D, Y70F, S71T
notes: as for B2
Turning to B11, the “EC50 (read off the curve)” value in experiment [1] was about 0.03 µg/mL. For the same molecule, the binding result in experiment [2] and in experiment [3] was “binds” each time.

B12: H6L6 (antibody, human IgG1, V domains shown)
VH: B2 VH
VL: B5 VL with H88Q
notes: as for B2
Regarding B12, the binding result in experiment [4] and in experiment [5] was “binds” throughout.

B13: H6L5 (antibody, human IgG1, V domains shown)
VH: B2 VH
VL: B2 VL with H88Q
notes: as for B2
For B13, the binding result in experiment [4] and in experiment [5] was “binds” throughout.

B14: H6L11 (antibody, human IgG1, V domains shown)
VH: B2 VH
VL: B2 VL with R45L, W46L
notes: as for B2
Take B14: the binding result in experiment [4] and in experiment [5] was “binds” each time.

B15: H8L2 (antibody, human IgG1, V domains shown)
VH: B3 VH
VL: B2 VL with L13V, K38R, R45L, W46L, S69D, Y70F, S71T
notes: as for B2
As to B15, the binding result in experiment [6] was “no binding”.

B16: H8L8 (antibody, human IgG1, V domains shown)
VH: B3 VH
VL: B5 VL
notes: as for B2
As for B16, the binding result in experiment [4] and in experiment [5] was “binds” throughout.

B17: H8L10 (antibody, human IgG1, V domains shown)
VH: B3 VH
VL: B5 VL with S69D, Y70F, S71T
notes: as for B2
Turning to B17, the half-maximal effective concentration (EC50 (read off the curve)) in experiment [1] is about 0.04 µg/mL. Moreover, the binding result in experiment [2] and in experiment [3] was “binds” throughout.

B18: H8L3 (antibody, human IgG1, V domains shown)
VH: B3 VH
VL: B5 VL with R45L, W46L, S69D, Y70F, S71T
notes: as for B2
Turning to B18, the binding result in experiment [6] was “no binding”.

B19: H8L6 (antibody, human IgG1, V domains shown)
VH: B3 VH
VL: B5 VL with H88Q
notes: as for B2
Consider B19, for which the binding result in experiment [4] and in experiment [5] was “binds” in each case.
